Data taken from patent US7501273B2, “Peptidylarginine deiminase 6” (N.V. Organon, priority 2001, dated 2009).

System: Soybean Trypsin Inhibitor (STI)
Assay: Determination of PAD6 enzyme activity: citrullination of STI, read out as trypsin activity on a fluorescent substrate
Assay type: biochemical
Conditions: 0.5 or 1.0 μg GST-PAD6, 0.17 μg STI, 30 minutes at 37° C., 5 mM CaCl2; FIG. 5
Excerpt: Another example of determining the enzymatic activity of PAD6 makes use of the inactivation of a protein e.g. Soybean Trypsin Inhibitor (STI) (Talcahara, H. et al. 1985, J. Biol. Chem. 260, 8378–8383. When an essential arginine in STI is converted into citrulline it is no longer able to inhibit the proteolytic activity of trypsin. This can be used as the basis for a two-step assay for the determination of PAD activity. The assay consists of two steps. In the first reaction PAD converts the arginine (position 63) in STI into a citrulline inactivating the STI. In the second reaction trypsin and a fluorescent substrate are added and trypsin activity is measured.
FIG. 5 Fluorescence measurement to determine PAD activity. STI (0.17 μg) was pre-incubated in the absence (filled square) or presence of 0.5 μg GST-PAD6 (filled triangle), 1.0 μg GST-PAD6 (open triangle), or 0.1 μg rabbit muscle PAD (open square; Sigma cat. No P1584) respectively. Subsequently, Nα-benzoyl-L-Arginine-7-amido-4-methylcoumarin (100 μM; Sigma cat. No. B7260) and trypsin (0.25 μg) were added, and fluorescence determined.
The activity of the PAD was determined by the formation of citrulline in Soybean Trypsin Inhibitor (STI) as a substrate. […] Therefore, an increased activity of trypsin, as detected with a fluorescent trypsin substrate, indicates PAD activity. […]

PAD activity (increased trypsin activity, fluorescence): could be detected
B1: PAD6: Recombinant full-length human peptidylarginine deiminase 6 (SEQ ID NO:3) expressed in E. coli as GST fusion protein (protein)
chain: MSFQSIIHLSLDSPVHAVCVLGTEICLDLSGCAPQKCQCFTIHGSGRVLIDVANTVISEKEDATIWWPLSDPTYATVKMTSPSPSVDADKVSVTYYGPNEDAPVGTAVLYLTGIEVSLEVDIYRNGQVEMSSDKQAKKKWIWGPSGWGAILLVNCNPADVGQQLEDKKTKKVIFSEEITNLSQMTLNVQGPSCILKKYRLVLHTSKEESKKARVYWPQKDNSSTFELVLGPDQHAYTLALLGNHLKETFYVEAIAFPSAEFSGLISYSVSLVEESQDPSIPETVLYKDTVVFRVAPCVFIPCTQVPLEVYLCRELQLQGFVDTVTKLSEKSNSQVASVYEDPNRLGRWLQDEMAFCYTQAPHKTTSLILDTPQAADLDEFPMKYSLSPGIGYMIQDTEDHKVASMDSIGNLMVSPPVKVQGKEYPLGRVLIGSSFYPSAEGRAMSKTLRDFLYAQQVQAPVELYSDWLMTGHVDEFMCFIPTDDKNEGKKGFLLLLASPSACYKLFREKQKEGYGDALLFDELRADQLLSNGREAKTIDQLLADESLKKQNEYVEKCIHLNRDILKTELGLVEQDIIEIPQLFCLEKLTNIPSDQQPKRSFARPYFPDLLRMIVMGKNLGIPKPFGPQIKGTCCLEEKICCLLEPLGFKCTFINDFDCYLTEVGDICACANIRRVPFAFKWWKMVP
modifications: left off: a dimerising Fc or GST
